Earlier results on one substance are cited in publication PMC7005313.

The data set concerns the target Tyr99 (UniProt position 100, KDGNGYISAAE). In words: fluorescence. Particulars: not stated (the title of the cited paper refers to calcium and pH dependence).

For Calmodulin (bovine testes) (Bos taurus), the pKa entry was “as low as 7.0”.
